Experiment [1] has as its target T1, interaction between HPV16 E1 and E2 (Human papillomavirus type 16, UniProt P03114).
T1 construct: made in house; host or cells: Hi-Five insect cells infected with recombinant baculovirus (pVL1392); nuclear extracts
T1 sequence (P03114 whole entry, looked up): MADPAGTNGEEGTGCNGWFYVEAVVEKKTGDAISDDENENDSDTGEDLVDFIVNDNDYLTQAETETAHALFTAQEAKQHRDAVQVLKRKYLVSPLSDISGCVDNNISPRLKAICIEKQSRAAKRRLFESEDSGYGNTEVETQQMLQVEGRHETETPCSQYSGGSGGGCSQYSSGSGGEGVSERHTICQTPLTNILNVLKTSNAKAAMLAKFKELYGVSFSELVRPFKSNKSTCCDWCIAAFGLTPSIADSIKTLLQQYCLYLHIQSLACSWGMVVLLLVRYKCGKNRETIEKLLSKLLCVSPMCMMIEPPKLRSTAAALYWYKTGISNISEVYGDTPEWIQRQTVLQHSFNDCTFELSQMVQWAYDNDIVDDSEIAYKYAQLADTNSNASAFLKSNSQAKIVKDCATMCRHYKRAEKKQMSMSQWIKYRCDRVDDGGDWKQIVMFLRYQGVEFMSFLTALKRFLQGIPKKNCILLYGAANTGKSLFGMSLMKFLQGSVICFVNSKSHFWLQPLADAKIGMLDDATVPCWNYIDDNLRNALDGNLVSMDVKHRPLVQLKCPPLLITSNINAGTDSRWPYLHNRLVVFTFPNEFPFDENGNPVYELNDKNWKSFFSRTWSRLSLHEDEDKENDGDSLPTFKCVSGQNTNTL
Description: In vitro HPV E1-E2 binding assay (co-immunoprecipitation / Western blot), HPV16 E1 and HPV16 E2. The conditions noted are these: increasing peptide concentrations, FIG. 6A. How it is done: In vitro HPV E1-E2 binding assay. 300-500 ng protein from HPV16 or HPV11 EE-E1 expressing recombinant baculovirus infected cell nuclear extracts and 80-120 ng from HPV E2 baculovirus infected cell nuclear extracts were incubated in 500 μl NET-gel buffer (50 mM Tris-HCl pH7.5, 150 mM NaCl, 0.1% NP-40, 1 mM EDTA, 0.25% gelatin) at 4° C. for one hour. 1-2 μg anti-EE monoclonal antibody was added and incubated with shaking at 4° C. for one hour. Immune complexes were precipitated with protein-G agarose beads and washed twice for 30 minutes with ice cold NET-gel buffer. Precipitated proteins were detected by Western blot using appropriate primary antibodies and anti-rabbit IgG HRP or anti-mouse IgG HRP (Amersham). Membranes were blocked for one hour in TNET (10 mM Tris 7.5, 2.5 mM EDTA, 50 mM NaCl, 0.1% Tween-20) containing 4% (w/v) dry milk. Washes and antibody reactions were carried out in TNET, and proteins were visualized by chemiluminescence (Reneaissance ECL, NEN) and autoradiography. Bands were quantitated using the NIH image program.
Therefore, we reasoned that a peptide encompassing this domain of HPV16 E2 might inhibit interaction between HPV16 E1 and E2, thereby inhibiting HPV16 DNA replication (FIG. 5). In order to test this possibility, HPV16 E2 and epitope tagged full length HPV16 E1 (EE16-E1) proteins were expressed separately using baculovirus vectors. EE-E1 and associated E2 proteins were immunoprecipitated using an anti-EE epitope monoclonal antibody. Precipitated E2 was detected by Western blot using polyclonal antiserum raised to the DNA binding domain of HPV16 E2 (35). As shown in lane 2 of FIG. 6A, E2 co-immunoprecipitated with EE16-E1, but was not precipitated by the EE epitope antibody in the absence of EE16-E1 (lane 1). Peptides encompassing HPV16 E2 amino acids 29-51 (E2N-WP23) or residues 33-47 (E2N-WP15) of HPV16 E2 were then tested for inhibition of E1-E2 interaction. These peptide sequences were derived from the sequence of HPV16 E2, and were based on an alignment of amino terminal residues that are conserved among the papillomavirus E2 proteins (FIG. 5). […] Both the HPV16 E2 protein itself and the E2 derived peptides act specifically in these assays, since the E39A replication defective HPV16 E2 mutant bound only slightly to EE16-E1 (lanes 14). […] These peptides are named E2N-MP23 and E2N-MP15, respectively (see FIG. 5). […] We have previously shown that a domain spanning amino acids 421-647 of the HPV16 E1 carboxy terminus is necessary and sufficient for E2 interaction (45).

Experiment [2] concerns in vitro HPV16 DNA replication. Description: In vitro replication of HPV16 DNA (293 cell extract, EE-E1, HPV16 E2). The conditions noted are these: 40 ng EE-E1 and 6 ng HPV16 E2, FIG. 7. The class given is biochemical. As to the method: In vitro replication reactions. In vitro replication reactions were essentially as described by Kuo et al. (18) in 25 μl reactions at 37° C. for indicated times. Standard reactions were for 2 hours, and were terminated by addition of 200 μl stop solution (20 mM Tris-HCl pH 7.5, 10 mM EDTA, 0.1% SDS, and 20 μg/ml RNase A). After incubation at 37° C. for 15 minutes, proteinase K was added (200 μg/ml) and incubation was continued 30 minutes. Samples were extracted with 250 μl phenol/chloroform/isoamyl alcohol (25:24:1), ethanol precipitated, washed with 70% ethanol, dried, resuspended in 20-30μl TE, and analyzed on a 0.8% agarose gel (TAE). The agarose gel was dried onto Hybond N+ membrane (Amersham), and replicated DNA was visualized by autoradiography. Bands were quantitated by Phosphorimager analysis. Replication templates were pKS7838-7905 (nt7838-7905/1-130) containing the HPV16 replication origin, and pUC7874-99 containing the HPV11 origin of replication (nt7874-7933/1-99). pUC7874-99 was a generously provided by Dr. Louise Chow.
We sought to establish a system for the study of HPV16 DNA replication in vitro, and to determine whether specific interaction between HPV16 E1 and E2 was required for HPV16 DNA replication in this system. […] As has been documented for other papillomavirus E1 proteins, some replication was observed using relatively large amounts of E1 in the absence of E2 (lanes 2 through 7) (6, 16, 22, 33, 40, 48). […] Replication in this assay is ori-dependent, since the small amount of replication of the pKS plasmid lacking the HPV16 origin detected at high concentrations of EE-E1 (FIG. 3B, lanes 1-6) was not stimulated by E2 (FIG. 1B, lanes 7-12).
Since the E2N-WP23 and E2N-WP 15 peptides could inhibit interaction between […] E1 and E2, their ability to inhibit in vitro HPV16 DNA replication was also tested (FIGS. 7A and 7B).

Where no end group is shown, it is not given here.

Consider WKHMRLACAIYYKAR [E2N-MP15], for which, in experiment [1], the “inhibition of HPV16 E1-E2 interaction” value was “did not inhibit E1-E2 interaction at concentrations at which the wild type peptide could do so”. Moreover, the “inhibition of in vitro HPV16 DNA replication” value in experiment [2] is given as “wild type peptides inhibited replication much more effectively than the respective E39A substituted analog”.

(Values after patent publication US6673354B2, “Compositions and methods for treating papillomavirus-infected cells” (priority 1998, dated 2004).)
